Assay results taken from article PMC4714923.

Molecular target: T1, Hsp72 C-terminal tracer (Fam-…) (human)
T1 chain: GSGPTIEEVD
Experiment: fluorescence polarisation
Settings: remark: other sources report otherwise

Kd: > 75 µM
B1: Human FKBP51 (51-kDa FK506-binding protein), Q13451 1-457 (natural protein)
chain: MTTDEGAKNNEESPTATVAEQGEDITSKKDRGVLKIVKRVGNGEETPMIGDKVYVHYKGKLSNGKKFDSSHDRNEPFVFSLGKGQVIKAWDIGVATMKKGEICHLLCKPEYAYGSAGSLPKIPSNATLFFEIELLDFKGEDLFEDGGIIRRTKRKGEGYSNPNEGATVEIHLEGRCGGRMFDCRDVAFTVGEGEDHDIPIGIDKALEKMQREEQCILYLGPRYGFGEAGKPKFGIEPNAELIYEVTLKSFEKAKESWEMDTKEKLEQAAIVKEKGTVYFKGGKYMQAVIQYGKIVSWLEMEYGLSEKESKASESFLLAAFLNLAMCYLKLREYTKAVECCDKALGLDSANEKGLYRRGEAQLLMNEFESAKGDFEKVLEVNPQNKAARLQISMCQKKAKEHNERDRRIYANMFKKFAEQDAKEEANKAMGKKTSEGVTNEKGTDSQAMEEEKPEGHV
modifications: here or on the partner: 5-carboxyfluorescein (5-Fam) on the N-terminus via a 6-carbon spacer (aminohexanoic acid)
